Results taken from paper PMC9454738, “An FDA-Approved Antifungal, Ketoconazole, and Its Novel Derivative Suppress tGLI1-Mediated Breast Cancer Brain Metastasis by Inhibiting the DNA-Binding Activity of Brain Metastasis-Promoting Transcrip”.

Target: N-tGLI1 (N-terminal truncated GLI1) (UniProt P08151-2 1-390)
Assay: EMSA; no drug; 5X binding buffer as printed: 50 mM Tris pH 7.5, 50 mM NaCl, 200 mM KCl, 5 mM MgCl2, 10 mM EDTA, 5 mM DTT, 250 ug/mL BSA, 25% glycerol; 50 ng/uL poly dI-dC; ~600 ng protein, 5 pmol probe in 20 uL; 20 min on ice (drug tests: 30 min preincubation on ice for GLI1 or at RT for N-tGLI1, then 30 min with probe); 6% TBE gel
Settings: protein: recombinant; tags: MBP tag cleaved with HRV 3C protease; label: 5' 6-FAM on both strands; blunt

Chain of N-tGLI1 (N-terminal truncated GLI1) (P08151 other isoform, or with tags, fused parts or gaps): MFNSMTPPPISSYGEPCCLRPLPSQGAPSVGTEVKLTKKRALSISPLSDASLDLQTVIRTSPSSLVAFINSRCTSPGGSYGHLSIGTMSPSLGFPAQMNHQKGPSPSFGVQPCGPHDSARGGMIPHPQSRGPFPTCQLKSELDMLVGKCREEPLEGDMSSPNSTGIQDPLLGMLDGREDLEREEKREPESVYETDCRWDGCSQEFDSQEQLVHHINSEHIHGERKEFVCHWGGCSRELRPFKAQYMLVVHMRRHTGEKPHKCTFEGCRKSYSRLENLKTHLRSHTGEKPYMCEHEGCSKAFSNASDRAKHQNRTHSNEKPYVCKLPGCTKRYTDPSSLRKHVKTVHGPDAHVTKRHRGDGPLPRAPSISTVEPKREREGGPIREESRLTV

B1: GLI1/tGLI1 consensus probe (dsDNA)
DNA 1: CGAAGAGACCACCCAGGTAGCT
DNA 2: AGCTACCTGGGTGGTCTCTTCG
- binding result: binds
